Results on 7 molecules are retold here after patent publication US20120021972A1 (CADILA HEALTHCARE, published 2012).

Non-standard residues stand in square brackets, D forms with d. No end group written: not given here. *: point of attachment. Bip(2'-Et-4'-OMe) = CCc1cc(OC)ccc1-c1ccc(C[C@H](N)C(=O)O)cc1; Nva(5-(3,5-Me2Ph)) = Cc1cc(C)cc(CCC[C@H](N)C(=O)O)c1; 2F‑APPA = 2-amino-5-(2-fluorophenyl)pentanoic acid; αMePhe(2-F) = C[C@](N)(Cc1ccccc1F)C(=O)O; NMeBip(OMe) = N-methylated Bip(OMe); hhPhe = N[C@@H](CCCc1ccccc1)C(=O)O; NMeD = CN[C@@H](CC(=O)O)C(=O)O; aThr = C[C@H](O)[C@H](N)C(=O)O; NMeAPPA = not defined here; CNB = not defined here; Ac3c = NC1(C(=O)O)CC1; Aib = CC(C)(N)C(=O)O; Moc = COC(=O)*

Chain of human GLP-1 receptor (P43220 24-463): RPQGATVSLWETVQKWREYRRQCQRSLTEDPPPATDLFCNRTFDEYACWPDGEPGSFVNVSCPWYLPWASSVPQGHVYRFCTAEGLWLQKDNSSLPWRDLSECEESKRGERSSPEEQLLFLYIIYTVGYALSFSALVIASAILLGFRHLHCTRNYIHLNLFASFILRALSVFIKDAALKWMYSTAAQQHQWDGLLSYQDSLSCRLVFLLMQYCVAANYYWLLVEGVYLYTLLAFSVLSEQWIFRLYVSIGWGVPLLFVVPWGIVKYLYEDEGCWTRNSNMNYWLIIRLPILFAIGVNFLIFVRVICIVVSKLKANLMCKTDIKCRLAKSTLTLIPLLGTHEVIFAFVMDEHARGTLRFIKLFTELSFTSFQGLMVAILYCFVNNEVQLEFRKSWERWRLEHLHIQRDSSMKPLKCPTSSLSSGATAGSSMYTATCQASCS

The first assay concerns the target human GLP-1 receptor (human, UniProt P43220 24-463). Description: cell-based or functional assay.
Regarding H[Aib][CNB]G[aThr][αMePhe(2-F)][aThr]S[NMeD][NMeBip(OMe)][NMeAPPA] (reading uncertain) [Seq. ID. No. 154: H-Aib-(CNB)-G-T(allo)-(α-Me-2F-Phe)-T(allo)-S-(NMe)D-((NMe)Bip(OMe))-((NMe)(APPA))], the “cAMP release, % activity, 1 nM” value worked out at 60%; the “cAMP release, % activity, 10 nM” value was found to be 92%; the “cAMP release, % activity, 100 nM” value amounted to 98%; the “cAMP release, % activity, 1 µM” value came to 99%. For the same molecule, the “cAMP release, % activity, 10 µM” value was 99%.

Turning to H[Aib][CNB]G[aThr][αMePhe(2-F)][aThr]SD[Bip(2'-Et-4'-OMe)][hhPhe] (reading uncertain; also: thioamide bond between residues 10 and 11) [Seq. ID. No. 166: H-Aib-(CNB)-G-T(allo)-(α-Me-2F-Phe)-T(allo)-SD-Bip(OMe)-(C═S)-(APPA)], the “cAMP release, % activity, 1 nM” value is 96%; the “cAMP release, % activity, 10 nM” value was 99%; the “cAMP release, % activity, 100 nM” value was 99%; the “cAMP release, % activity, 1 µM” value was found to be 99%. Further, the “cAMP release, % activity, 10 µM” value is 99%.

For Moc-H[Aib][CNB]GT[αMePhe(2-F)]TSD[Bip(2'-Et-4'-OMe)][hhPhe] (reading uncertain) [Seq. ID. No. 206: CH3OCO-H-Aib-(CNB)-GT-(α-Me-2F-Phe)-TSD-Bip(OMe)-(APPA)], the “cAMP release, % activity, 1 nM” value was 39%; the “cAMP release, % activity, 10 nM” value is 80%; the “cAMP release, % activity, 100 nM” value stood at 86%; the “cAMP release, % activity, 1 µM” value came out at 95%. In addition, the “cAMP release, % activity, 10 µM” value worked out at 98%.

For Ac-H[Aib][CNB]GT[αMePhe(2-F)]TSD[Bip(2'-Et-4'-OMe)][hhPhe] (reading uncertain) [Seq. ID. No. 205: CH3CO-H-Aib-(CNB)-GT-(α-Me-2F-Phe)-TSD-Bip(OMe)-(APPA)], the “cAMP release, % activity, 1 nM” value was 96%; the “cAMP release, % activity, 10 nM” value is 99%; the “cAMP release, % activity, 100 nM” value came out at 99%; the “cAMP release, % activity, 1 µM” value stood at 99%. For the same molecule, the “cAMP release, % activity, 10 µM” value was determined as 99%.

On to Moc-H[Aib]QG[aThr][αMePhe(2-F)][aThr]SD[Bip(2'-Et-4'-OMe)][2F‑APPA] (also: reduced (CH2) bonds between 9-10 and 10-11) [Seq. ID. No. 200: CH3OCO-H-Aib-QG-T(allo)-(α-Me-2F-Phe)-T(allo)-SD-(CH2)-Bip(OMe)-(CH2)-(2F-APPA)], for which the “cAMP release, % activity, 1 nM” value was 55%; the “cAMP release, % activity, 10 nM” value worked out at 88%; the “cAMP release, % activity, 100 nM” value was found to be 92%; the “cAMP release, % activity, 1 µM” value was found to be 99%. The “cAMP release, % activity, 10 µM” value turned out to be 99%.

As to H[Ac3c]QGTFTSD[Bip(2'-Et-4'-OMe)][Nva(5-(3,5-Me2Ph))] [Seq. ID. No. 22: H-(ACP)-QGTFTSD-Bip(OMe)-(ADMP)], the “cAMP release, % activity, 1 nM” value came out at 99%; the “cAMP release, % activity, 10 nM” value came out at 99%; the “cAMP release, % activity, 100 nM” value was found to be 99%; the “cAMP release, % activity, 1 µM” value turned out to be 99%. In addition, the “cAMP release, % activity, 10 µM” value is 99%.

For H[Aib][CNB]G[aThr][αMePhe(2-F)][aThr]SD[Bip(2'-Et-4'-OMe)][2F‑APPA] (reading uncertain; also: thioamide bond between residues 10 and 11) [Seq. ID. No. 168: H-Aib-(CNB)-G-T(allo)-(α-Me-2F-Phe)-T(allo)-SD-Bip(OMe)-(C═S)-(2F-APPA)], the “cAMP release, % activity, 1 nM” value was found to be 96%; the “cAMP release, % activity, 10 nM” value was 99%; the “cAMP release, % activity, 100 nM” value was determined as 99%; the “cAMP release, % activity, 1 µM” value was 99%. For the same molecule, the “cAMP release, % activity, 10 µM” value amounted to 99%.

For a further assay, the target named is human glucagon receptor (human, UniProt P47871 26-477). Description: cell-based or functional assay.
Turning to H[Aib][CNB]G[aThr][αMePhe(2-F)][aThr]S[NMeD][NMeBip(OMe)][NMeAPPA] (reading uncertain) [Seq. ID. No. 154: H-Aib-(CNB)-G-T(allo)-(α-Me-2F-Phe)-T(allo)-S-(NMe)D-((NMe)Bip(OMe))-((NMe)(APPA))], the “inhibition of cAMP production, 1 nM” value came to 9 pmol/ml/µg prt; the “inhibition of cAMP production, 10 nM” value amounted to 6 pmol/ml/µg prt; the “inhibition of cAMP production, 100 nM” value stood at 5 pmol/ml/µg prt; the “inhibition of cAMP production, 1 µM” value turned out to be 3 pmol/ml/µg prt. Also, the “inhibition of cAMP production, 10 µM” value was found to be 0 pmol/ml/µg prt.

On to H[Aib][CNB]G[aThr][αMePhe(2-F)][aThr]SD[Bip(2'-Et-4'-OMe)][hhPhe] (reading uncertain; also: thioamide bond between residues 10 and 11) [Seq. ID. No. 166: H-Aib-(CNB)-G-T(allo)-(α-Me-2F-Phe)-T(allo)-SD-Bip(OMe)-(C═S)-(APPA)], for which the “inhibition of cAMP production, 1 nM” value amounted to 19 pmol/ml/µg prt; the “inhibition of cAMP production, 10 nM” value was found to be 17 pmol/ml/µg prt; the “inhibition of cAMP production, 100 nM” value came out at 15 pmol/ml/µg prt; the “inhibition of cAMP production, 1 µM” value is 14 pmol/ml/µg prt. Further, the “inhibition of cAMP production, 10 µM” value amounted to 12 pmol/ml/µg prt.

As for Moc-H[Aib][CNB]GT[αMePhe(2-F)]TSD[Bip(2'-Et-4'-OMe)][hhPhe] (reading uncertain) [Seq. ID. No. 206: CH3OCO-H-Aib-(CNB)-GT-(α-Me-2F-Phe)-TSD-Bip(OMe)-(APPA)], the “inhibition of cAMP production, 1 nM” value is 0 pmol/ml/µg prt; the “inhibition of cAMP production, 10 nM” value came to 0 pmol/ml/µg prt; the “inhibition of cAMP production, 100 nM” value was found to be 0 pmol/ml/µg prt; the “inhibition of cAMP production, 1 µM” value was 0 pmol/ml/µg prt. Further, the “inhibition of cAMP production, 10 µM” value is 0 pmol/ml/µg prt.

Turning to Ac-H[Aib][CNB]GT[αMePhe(2-F)]TSD[Bip(2'-Et-4'-OMe)][hhPhe] (reading uncertain) [Seq. ID. No. 205: CH3CO-H-Aib-(CNB)-GT-(α-Me-2F-Phe)-TSD-Bip(OMe)-(APPA)], the “inhibition of cAMP production, 1 nM” value was found to be 4 pmol/ml/µg prt; the “inhibition of cAMP production, 10 nM” value was 2 pmol/ml/µg prt; the “inhibition of cAMP production, 100 nM” value was found to be 0 pmol/ml/µg prt; the “inhibition of cAMP production, 1 µM” value was 0 pmol/ml/µg prt. Besides, the “inhibition of cAMP production, 10 µM” value is 0 pmol/ml/µg prt.

As for Moc-H[Aib]QG[aThr][αMePhe(2-F)][aThr]SD[Bip(2'-Et-4'-OMe)][2F‑APPA] (also: reduced (CH2) bonds between 9-10 and 10-11) [Seq. ID. No. 200: CH3OCO-H-Aib-QG-T(allo)-(α-Me-2F-Phe)-T(allo)-SD-(CH2)-Bip(OMe)-(CH2)-(2F-APPA)], the “inhibition of cAMP production, 1 nM” value came to 10 pmol/ml/µg prt; the “inhibition of cAMP production, 10 nM” value is 8 pmol/ml/µg prt; the “inhibition of cAMP production, 100 nM” value came out at 6 pmol/ml/µg prt; the “inhibition of cAMP production, 1 µM” value is 4 pmol/ml/µg prt. For the same molecule, the “inhibition of cAMP production, 10 µM” value came out at 1 pmol/ml/µg prt.

For the molecule H[Ac3c]QGTFTSD[Bip(2'-Et-4'-OMe)][Nva(5-(3,5-Me2Ph))] [Seq. ID. No. 22: H-(ACP)-QGTFTSD-Bip(OMe)-(ADMP)], the “inhibition of cAMP production, 1 nM” value amounted to 17 pmol/ml/µg prt; the “inhibition of cAMP production, 10 nM” value stood at 15 pmol/ml/µg prt; the “inhibition of cAMP production, 100 nM” value was 12 pmol/ml/µg prt; the “inhibition of cAMP production, 1 µM” value worked out at 8 pmol/ml/µg prt. The “inhibition of cAMP production, 10 µM” value was 6 pmol/ml/µg prt.

As for H[Aib][CNB]G[aThr][αMePhe(2-F)][aThr]SD[Bip(2'-Et-4'-OMe)][2F‑APPA] (reading uncertain; also: thioamide bond between residues 10 and 11) [Seq. ID. No. 168: H-Aib-(CNB)-G-T(allo)-(α-Me-2F-Phe)-T(allo)-SD-Bip(OMe)-(C═S)-(2F-APPA)], the “inhibition of cAMP production, 1 nM” value is 21 pmol/ml/µg prt; the “inhibition of cAMP production, 10 nM” value worked out at 19 pmol/ml/µg prt; the “inhibition of cAMP production, 100 nM” value turned out to be 18 pmol/ml/µg prt; the “inhibition of cAMP production, 1 µM” value was 18 pmol/ml/µg prt. Further, the “inhibition of cAMP production, 10 µM” value came out at 16 pmol/ml/µg prt.
